# Measured values published in the supplement of paper PMC9170038.
# System: K4 kissing-loop RNA reporter
# Test: apparent KD of K4 kissing-loop reporter; higher = weaker reporter binding
# Conditions: Eterna round: R107
# Protocol: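 RNA-MaP round R107: designed RNA switches with theophylline, tryptophan, arginine or FMN aptamers are transcribed on-chip within common flanks. They are titrated with a labelled K4 kissing-loop RNA reporter in RNA-MaP buffer (100 mM Tris pH 7.5, 80 mM KCl, 4 mM MgCl2), without ligand or with the indicated ligand. Median apparent KD per design.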
# [1] = input ligand: theophylline 20 uM
# [2] = input ligand: tryptophan 2.4 mM
# 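Further: bound reporter read as fluorescence of individual clusters on recovered sequencing chips by microscopy, with normalized cluster intensities fitted with a binding model.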
Sequence,apparent KD of K4 kissing-loop reporter (input ligand: FMN 200 uM) [nM],apparent KD of K4 kissing-loop reporter (input ligand: arginine 13.2 mM) [nM],apparent KD of K4 kissing-loop reporter (input ligand: none) [nM],apparent KD of K4 kissing-loop reporter [1] [nM],apparent KD of K4 kissing-loop reporter [2] [nM]
AAACGUUGGUCGGAUACCAGCUUGAUCGGAAACGAUCUGCUGGAGUGAUGUUCCAAGUAAAGCCCUUGGCAGCCGACCGACGAAA [MAT - Same State Theophlline B - Mod of Eli - D18],148,65.1,99.4,95.4,71.6
AAACGUUGGUGCGAUACCAGCUGGUCGGAAACGACCUUGCUGGAGUGAUGUUCCAAGUAAAGCCCUUGGCAGCGCACCGACGAAA [MAT - Same State Theophlline B - Mod of Eli - D23],122,53.6,43.2,135,93.9
AAAGUUGAAAGUGAUACCAGACGAGUGAAGGGAAGUAAUUAAUUUGGAGUGAUGUUCCGCGUCCCUUGGCAGCAUUUUGUAAUUU [Exclusion Theophylline B GF 24],166,195,189,186,153
AAAUAAAGCAGUCACCCAGUGAUGUUGGAAGGAGCGUGCGAAAGCACAGGUAGGUCGCCGAUAAGGACAAAGUCCAGUGGCUGCA [#SwitchBubble 28 #K4Early],458,344,595,590,283
AAAUAGAUCAGUCACCCAGUGAUGUUGGAAGGAGCGUGCGAAAGCACAGGUAGGUCGCCAGAAUAAAAGUGGCUGAUCAAAAUAA,512,358,519,513,366
AAAUAGAUCAGUCACCCAGUGAUGUUGGAAGGAGCGUGCGAAAGCACAGGUAGGUCGCCAUAAUAAAAGUGGCUGAUCAAAAUAA,446,287,487,534,310
AAAUUUAUAUUAGAUACCAGCAUUUUGAAUGUUUAUUAUGACAAGAGUGAUGUUCUUGUAUGCCCUUGGCAGCUGGUAUGGGUUU [KL-XTheo-B24],123,115,136,120,125
AAAUUUAUAUUAGAUACCAGUUUAAUGGAUGUAAAUUAUGACAUGAGUGAUGUUCAUGUAAGCCCUUGGCAGCUGGUAUGGGUUU [KL-XTheo-B21],127,110,121,116,115
AAAUUUAUAUUAGAUACCAGUUUAUUGGAUGUAAAUUAUGACAUGAGUGAUGUUCAUGUAAGCCCUUGGCAGCUGGUAUGGGUUU [KL-XTheo-B22],132,119,127,124,114
AACCUACGAUCACAAUAGUGAUUGUAGGACUAGGAUAUGCUGAAAAGCAGAAGGAGUGAUGUUCCGUCAUGAAUAACAUGACAAA [FmnAX 3 #OpenEnded #K4Late #CoaxialStacking],610,465,455,497,357
AACGUUUUGAGAAGGAGCGCGUUAAGCAGUGAUGUUGCUUUAUUAUAUUUACUACAUAUUUCGCAGGUAGGUCGCUCAAUACGUA [JR_Nu_SSArginiB_Sub025],154,153,148,152,123
AACUGUCAAGGACAACAUUACUGAGGUGAUACCAGGUUUGAGAGGAUCCCUUGGCAGCACCAACUUGCAGUGAUGUUGCAAGUAA [BrourdMod 15 - Jieux - Exclusion - Theophylline A],243,211,240,254,243
AAGAAGAAUGGAAGGAGCGAGCAGAAAUAACCAGUGAUGUUGGAAAGCCUUAUUGCUUAAGCUCAGGUAGGUCGCCAAGAAAAGA [Mostly trial and error],158,181,205,226,171
AAGACCUGCAUCGAUACCAGCCCAGUGAUGUUGGGCUGCUCUCCAUGGGUGCCAGACACGGGCCCUUGGCAGCGAGGUAGGGCCC [Zazadilabi],136,106,117,93.1,103
AAGAGAGCGAGAAGGAGCGAGAAAGCUAGUGCAUAUGCACUAGCAAAGCAGUGAUGUUGCACUCAGGUAGGUCGCUCGCUCUCAA [AK1.2 SS Arginine B],384,292,350,395,291
AAGCAGUCACCCGAAGCCAUCGAAGAUGGACGAGGACCGGUACGGCCGCCACUCGGAGUGAUGUUCCGAAGACUGCAAAAUAAAA,269,272,302,304,412

Sequence,apparent KD of K4 kissing-loop reporter (input ligand: FMN 200 uM) [nM],apparent KD of K4 kissing-loop reporter (input ligand: arginine 13.2 mM) [nM],apparent KD of K4 kissing-loop reporter (input ligand: none) [nM],apparent KD of K4 kissing-loop reporter [1] [nM],apparent KD of K4 kissing-loop reporter [2] [nM]
AAGCAGUCACUCGAAAUCAUCGAAGAUGAACGAGGACCGGUACGGCCGCCACUCGGAGUGAUGUUCCGAAGACUGCAAAAUAAAA [MatMod 1 - Jieux - Exclusion - Tryptophan A],593,410,475,477,106
AAGCAGUCACUCGAACCCAUCGAAGAUGGGCGAGGACCGGUACGGCCGCCACUCGGAGUGAUGUUCCGAAGACUGCAAAAUAAAA,329,367,293,341,555
AAGCAGUCACUCGAAGCCAUCGAAGAUGGGCGAGGACCGGUACGGCCGCCACUCGGAGUGAUGUUCCGAGGACUGCAAAAUAAAA [MatMod 4 - Jieux - Exclusion - Tryptophan A],507,365,350,299,311
AAGCAGUCACUCGACACCAUCGAAGAUGGGCGAGGACCGGUACGGCCGCCACUCGGAGUGAUGUUCUGAUGACUGCAAAAUAAAA [MatMod 9 - Jieux - Exclusion - Tryptophan A],99.9,60.1,86.3,158,75.6
AAGCAGUCACUCGACGCCAUCGAAGAUGGGCGAGGACCGGUACGGCCGCCACUCGGAGUGAUGUUCCGAAGACUGCAAAAUAAAA [MatMod 6 - Jieux - Exclusion - Tryptophan A],356,317,384,329,480
AAGCAGUCACUCGCAGCCAUCGAAGAUGGUCGAGGACCGGUACGGCCGCCACUCGGAGUGAUGUUCCGAAGACUGCAAAAUAAAA,281,259,282,325,400
AAGCAGUCAGGAUCGAAGAUCCUGCAAUACCGAGGACCGGUACGGCCGCCACUCGGAGUGAUGUUCCGAAGACUGCAAAAUAAAA [#SwitchBubble 7],436,255,243,57.9,152
AAGCAGUUCUCAAAGAGUACUGCAGGACAGCAGGAUAUAGUGAUGUUGAGAAGGGCUGUCCCGUCUGCAUGAAACAUGCAGACGA [Simply curious],1350,688,808,1290,688
AAGCCAUACUCGGCCGCCACUUACUUCGUUGCAGUGAUGUUGCACACGAAUCCGUCAUAGCAAAUAAGGACCGGGAGAUAUACCG [theeternabot_exclusion_KL_Trp_B_19],89.3,89.3,95.1,87.5,86.3
AAGGUUUAGCACGAUACCAGCCUGGAGGCCAGUGAUGUUGGCCGAUUUGAACAGAAUUAAGGCCCUUGGCAGCGUCUCUAAAACC [Dierra],191,180,192,144,176
AAGUACACGAUAGUGUACACCUAGUGAUGUUAGGAUAUGCAGAUAUGCAGAAGGAACAAGUCAUCUGACAAUAGUCGGAUGACAA [FmnAX 6 #OpenEnded #K4Early],577,75.5,109,110,98
AAGUAGCUCUCGGCCGCCACUCCUCAGUGAUGUUGAGAUUUUUUCUGCCAAUUGGCGUUUUUUUAGAGGACCGGGAGAGCUACAA [AK1 SS Tryptophan B],332,365,339,291,124
AAGUCAUAUAGAAGGAGCGUGUUUUUUAAUUUGUUUUCAUGAUCGAGUGAUGUUCGAUAUACACAGGUAGGUCGCUGUAUAAUAA [hbob_SS_Arginine_B_2t142],119,141,131,127,106
AAGUGAUGUUGUAGUGAUGUUGUGAUGUUGCAGGAUAUAUAGUGAUGUAGAAGGGUAAGUACUCAUGUUGUUAGUAAGUGAUGUU [bttutmullin],91.5,43.2,81.7,63.7,74.2
AAGUGGGAACGGCCCAAUAAAGUGUUUGUCAAGGAUAUUAUUCACAUAAGAAGGUGACAGACCACCUCCGGAGUGAUGUUUUGGA [theeternabot_sameState_KL_FMN_A_42],581,443,719,508,539
